From US20080176953A1, “Methods and compositions for treatment of ocular neovascularization and neural injury” (Allergan, Inc., priority 2000, published 2008)

B1: PEDF: polypeptide originally isolated from cultured fetal human retinal pigment epithelial cells, approximate molecular weight 50 kDa (protein, UniProt P36955 20-418, looked up)
Pigment epithelium-derived …: QNPASPPEEGSPDPDSTGALVEEEDPFFKVPVNKLAAAVSNFGYDLYRVRSSTSPTTNVLLSPLSVATALSALSLGAEQRTESIIHRALYYDLISSPDIHGTYKELLDTVTAPQKNLKSASRIVFEKKLRIKSSFVAPLEKSYGTRPRVLTGNPRLDLQEINNWVQAQMKGKLARSTKEIPDEISILLLGVAHFKGQWVTKFDSRKTSLEDFYLDEERTVRVPMMSDPKAVLRYGLDSDLSCKIAQLPLTGSMSIIFFLPLKVTQNLTLIEESLTSEFIHDIDRELKTVQAVLTVPKLKLSYEGEVTKSLQEMKLQSLFDSPDFSKITGKPIKLTQVEHRAGFEWNEDGAGTTPSPGLQPAHLTFPLDYHLNQPFIFVLRDTDTGALLFIGKILDPRGP

Key:
[1] = test system: photoreceptors; conditions: intravitreal injection of purified NGF; cited from earlier work
[2] = test system: brain neurons in culture; conditions: cited from earlier work
[3] = test system: retinoblastoma cells; conditions: cited from earlier work
[4] = test system: "wet" age-related macular degeneration (ARMD); assay: Photodynamic therapy (verteporfin) combined with intravenous PEDF in a patient, Example 1; assay type: in vivo
Protocol: The day of scheduled PDT treatment, the patient is administered 6 mg/M^2 of verteporfin. […] The treatment requires irradiation of the […].

Row | Molecule | survival of photoreceptors [1] | life of brain neurons in culture [2] | protection against acute neurotoxic insult ([2]; e.g., glutamate toxicity) | differentiation of the retinoblastoma cells [3] | activity after heat incubation ([3]; incubation of PEDF at 75° C.) | elaboration of neuron-like processes ([3]; undifferentiated retinoblastoma cells) | visual acuity ([4]; 4 and 12 weeks following combined PDT and PEDF treatment) | renewed neovascularization ([4]; 12 weeks following PDT treatment) | optic nerve axon loss ([4]; after PDT with irradiation of the optic nerve) | Fluorescein angiography, leakage in the treated tissue ([4]; after one week and throughout the monitoring period) | visual inspection of the retina (affected areas) ([4]; one week following PDT, continuing through 12 week monitoring, intravenous PEDF every two days, verteporfin 6 mg/M^2)
1 | NGF: polypeptide known to have neuroprotective and neurotrophic effects | Increased survival of photoreceptors |  |  |  |  |  |  |  |  |  | 
2 | B1 |  | prolongs the life | protects neurons | induces differentiation | does not prevent PEDF from differentiating retinoblastoma cells | stimulate the elaboration of neuron-like processes | no discernable loss of vision | No evidence of renewed neovascularization | no evidence of optic nerve axon loss | minimal leakage | healthy with no whitening
